# B1: Protein TEM1 (Saccharomyces cerevisiae), P38987 (parent)
# chain: MATPSTGANNSIPAVRNQVEVQVGLVGDAQVGKTSLMVKYVQNIYDKEYTQTLGVNFLKRKVSIRSTDIIFSIMDLGGQREFINMLPIATVGSSVIIFLFDLTRPETLSSIKEWYRQAYGLNDSAIPILVGTKYDLLIDLDPEYQEQISRTSMKYAQVMNAPLIFCSTAKSINIQKIFKIALAKIFNLTLTIPEINEIGDPLLIYKHLGGQQHRHHNKSQDRKSHNIRKPSSSPSSKAPSPGVNT
# partner: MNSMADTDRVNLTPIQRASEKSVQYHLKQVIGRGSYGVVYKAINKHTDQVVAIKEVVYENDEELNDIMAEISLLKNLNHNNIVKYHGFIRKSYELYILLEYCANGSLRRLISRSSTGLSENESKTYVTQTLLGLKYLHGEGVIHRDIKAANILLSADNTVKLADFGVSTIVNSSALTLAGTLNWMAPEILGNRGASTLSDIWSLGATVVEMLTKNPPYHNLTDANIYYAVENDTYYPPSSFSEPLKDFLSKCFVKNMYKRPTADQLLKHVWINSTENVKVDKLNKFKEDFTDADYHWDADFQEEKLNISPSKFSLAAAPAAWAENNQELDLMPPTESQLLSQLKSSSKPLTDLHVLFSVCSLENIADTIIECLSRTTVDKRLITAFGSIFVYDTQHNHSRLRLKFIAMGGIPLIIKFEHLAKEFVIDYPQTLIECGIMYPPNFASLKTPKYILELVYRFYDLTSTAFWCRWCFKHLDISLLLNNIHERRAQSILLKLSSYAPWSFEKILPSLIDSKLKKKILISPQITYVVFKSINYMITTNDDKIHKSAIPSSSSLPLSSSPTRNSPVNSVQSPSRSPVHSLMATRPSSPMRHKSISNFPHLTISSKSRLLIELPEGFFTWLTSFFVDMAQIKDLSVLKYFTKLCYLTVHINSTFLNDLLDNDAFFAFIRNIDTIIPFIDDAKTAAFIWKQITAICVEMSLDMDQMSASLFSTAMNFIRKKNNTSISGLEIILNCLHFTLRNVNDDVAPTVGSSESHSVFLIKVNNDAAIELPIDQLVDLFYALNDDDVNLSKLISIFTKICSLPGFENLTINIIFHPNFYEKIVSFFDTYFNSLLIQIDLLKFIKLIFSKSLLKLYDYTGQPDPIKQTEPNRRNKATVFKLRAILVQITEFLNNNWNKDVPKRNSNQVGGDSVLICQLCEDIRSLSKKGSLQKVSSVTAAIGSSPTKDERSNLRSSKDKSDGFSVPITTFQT
# B2: Protein TEM1 (Saccharomyces cerevisiae), P38987 (parent)
# chain: B1 chain
# partner: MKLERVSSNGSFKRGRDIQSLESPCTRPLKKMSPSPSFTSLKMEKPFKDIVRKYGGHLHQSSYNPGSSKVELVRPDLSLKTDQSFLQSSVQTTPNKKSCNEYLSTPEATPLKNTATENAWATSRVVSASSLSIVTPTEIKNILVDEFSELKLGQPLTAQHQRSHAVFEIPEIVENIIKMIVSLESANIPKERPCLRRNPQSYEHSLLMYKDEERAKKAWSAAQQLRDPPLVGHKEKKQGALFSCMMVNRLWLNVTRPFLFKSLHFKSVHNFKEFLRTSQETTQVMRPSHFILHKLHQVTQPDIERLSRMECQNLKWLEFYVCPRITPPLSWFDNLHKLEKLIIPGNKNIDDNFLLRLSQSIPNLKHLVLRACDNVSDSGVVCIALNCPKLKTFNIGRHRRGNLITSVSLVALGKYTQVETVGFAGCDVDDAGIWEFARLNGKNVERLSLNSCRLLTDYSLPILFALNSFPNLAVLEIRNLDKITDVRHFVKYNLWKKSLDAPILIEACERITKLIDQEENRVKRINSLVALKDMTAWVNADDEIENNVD
# Variants of: B1
# Details: with cdc15_yeast CDC15, P27636
row,Variant,effect of a mutation on the interaction
1,T34A,disrupting interaction
2,D135A,disrupting interaction

# Variants of: B2
# Details: with amn1_yeast AMN1, P38285
row,Variant,effect of a mutation on the interaction
1,T34A,decreasing interaction
2,D135A,disrupting interaction
